assay: soluble on expression in E. coli; label from the status in PepcDB or PDB records

Sequence	soluble on expression in E. coli
MTAEILVVGSILPSDKFFCFLMGPAPVFPNSRKPATLDANSDEQTLRPYFKTKVEQAEQTVAEKSINVRRLMAQQKELNGKVRLLKEEISHLHEQGSHVGEVCKAMDKKKVLVKNHPDGKYIVDVAASVDISTLAAGTRVALRADNYAIHEVLPSKVDPLVSLMMVEKVPDSTYEMVGGLDTQIKEIKEVIELPVKHPELFDALGIAQPKGVLLYGPPGTGKTLLARAVAHHTECTFIRVSGSELVQKFIGEGARMVRELFVMAREHAPSIIFMDEIDSIGSSRVEGSRGGDSEVQRTMLELLNQLDGFEATKNIKVIMATNRIDILDSALLRPGRIDRKIEFPAPDEKARAQILKIHSRKMNLMRGIRMDKIAEQIPGASGAEVKSVCTEAGMFALRERRIHVTQEDFEMAVGKVMQKDSEKNMSIKKLWK	not soluble
MTAGGERVTERGTGSDPVDLFIIGGGINGCGIARDAAGRGLSVTLAEMGDLAQATSSASTKLFHGGLRYLEYFEFRLVREALEERETLLVAMPHISWPMRFVLPWQPEMRFAGDTPTARLLGRLMPWARGRRPAWLIRLALETYDRLGGRKILPPARSVDLTRDPAGRALQPRFTKGWEYSDCWVEDSRLVVLNARDAEIRGATILTRTKVVGAERRGDLWHVTTEGARGRQVHRARALVNAGGPWVARIIRETLALPTTEGVRLVRGSHIVTKRLFDHDRCYFFQGTDGRIIFAIPYETDFTLIGTTDQDHRGAPDEARCTPEEQDYLCTFASDYFRKPVTREDIVWTYSGVRPLHDDGARSATAATRDYVLSLDSRGAPLLNVFGGKITTYRRLAESAMAKLAGHFPQARGAWTARVPLPGGDFPWDGAPALAEGLRRDYPFLTERWAMRLVRAYGTDARNLLGPARSALDLGRDFGATLTEAEVRWLMDREYAERAEDVVWRRSKLGLRLTPEEIAALDGWMKDAGGAMEARADTGLEHHHHHH	soluble
MTAHRSVLLVVHTGRDEATETARRVEKVLGDNKIALRVLSAEAVDRGSLHLAPDDMRAMGVEIEVVDADQHAADGCELVLVLGGDGTFLRAAELARNASIPVLGVNLGRIGFLAEAEAEAIDAVLEHVVAQDYRVEDRLTLDVVVRQGGRIVNRGWALNEVSLEKGPRLGVLGVVVEIDGRPVSAFGCDGVLVSTPTGSTAYAFSAGGPVLWPDLEAILVVPNNAHALFGRPMVTSPEATIAIEIEADGHDALVFCDGRREMLIPAGSRLEVTRCVTSVKWARLDSAPFTDRLVRKFRLPVIGWRGK	soluble
MTALISISLLLVTFAGAAEMCAPVTQHSTPQSDVPSTVTITFHKLETSTTTKDEILNAIRTSHPDVHATGEPIDKKSIKVTLTAVSCVTAMKLAEEVLNAGTPVVLNAYAMLCDGEISTNIKP	soluble
MTAPFKDHFSTGSANYAAHRPTYPAQLVDELAALCPGTRLALDCGCGTGQLTVLLAERFERVVGTDASAAQIDKAQARERVEYRVALAEDSGLAAASADLVTVAQAAHWLDLPRFYEEVRRVARADAILALVTYGVLHVDGPMEPLVQHFYHQVVGPYWPAERRHVEEGYRNLPFPFEERRLPDLAIEVAWTLDELLGYVGTWSAVKEAGKALGQDPGAAFVDELREAWGDPQTRYRVSWPLTVRAGVIR	not soluble
MTAPGSVPLTVIGGFWGAGKTTLLNYLLKVQHSERVLVMVNDFGSINIDAELLDQGRHDRPGVVRLQNGCVCCSIGGDLMQAFLQVMSMPDRPDRIIVEASGVADPTRIAQIGRVSGGLSDEGVITLVDASAVRALAADKYVGDIVRQQILSADIVLLNKLDLSSDAEIVETRAWLRDLAPRTRVVSCIHGEVDAVSVLGIGAGKVAPDTAGGPVDVPVPDLRRASTRHADTFHSSTLATEHRFDRRRIEYALDALPQTVLRGKGFVELEGEATPALLQLCGSRWTLDPVSTPAPPAGTHLVFIATGGRGVPRFDAPSHFEQALASRDAASADTSNLEHHHHHH	not soluble
MTATSLWELAERARKRLSEIAKGNRDRALLAMADLLEARWEEVLRANREDLEEAERTGLPKAKLDRLALKEKDLKTLTEGLRQIARLPDPLGRIEGLAKRPNGLRVGRMRVPLGLIGFIYEARPGATVEAVSVALKAGNAMLLRGGKEAFRSNRALVALWHEALGEAGLPEEAVTLVPTTDREAVLEMCRLELLDLLIPRGGEELIRLVQREARVPVLAHAKGVNHLYVDKKADLSMALRLALNGKTQRPAVCNALETVLVHEKVAEAFLPRLEKAMREKGVELRACPRALPLLKEAVPAREDEWDREYLDLVLRVKVVSGLEEALAHIARYGSRHTEAICTEDPKAAWRFLEEVDASLVLWNASTRFNDGFELGLGAEIGISTSKLHAYGPMGPMELTTLKWVALGEGQERT	soluble
MTAYLNALGVICALGDSREEVARRLFAGDSSGMVVESGWVPERALPVGAVKGALPAMPPAMRSQHSRNNQLLLAAALQIKDEIGQAIEQYGAGRIGVIIGTSTSGIDEASSSMASWLRDQTFPADYDYRQQELGAPANFLATWLQLSGPAYVISTACTSSARALLSARRALDMGLCDAVLCGGVDSLCKLTLNGFSALEAMSPQLCNPFSLNRNGINIGEAAALFLMTREAGSTHSIALLGAGANCDAHHISAPEPSGRGARDAMLQALSNARLEAAQISYLNLHGTATQLNDAMESLAVQAVFPEGVPCSSTKSLSGHTLGAAGALEIAFCWLSLVPHNTEHALPPQVWDGAADPLLPALHWTVPGARLAAADTRYMMSNSFAFGGNNISLIIGDAP	not soluble
MTCDDWNSFIQVNIYGKTIEGLQQQGVVLESLLNNIGCSKLWIVEGSMYTSLTNESSTYSESTIEPVVPLSTTLATNKLPRFSTPAVGHSKYNSAKNFTLNLAEKLSEILSDDDKTDKCLENSYQSETSREDVIQDLLEEMVQTVADVDQAPILLSTTLANIGVPRFSTPIKPQNGLDRKFTMNMTERISEIDSNYQGYELFEDSSNDCTTLIPNCQEVESSFYRALPEAASSIVPYQEGKRRSSRRLSTLSSLKETVKIEPTVSKLTKRRRLTSIESSNETMVPHSEPIPLDKDGFSYEQPINEYGDNESFLSAKSLCTEPRSSISEDVKPVLKATDSERTVSIGNHIVDHHPVIELSTEHNTMGEFQYDFDDEDTVLIGNYEEVGTEIDEAEQQNEENSEDDEEDESPIPSTKKVSFAVPVVQRLNKRNEQMNKNHIIKCNFEGCKQILSWKLRYGKQRLLDHAMTHENEKCLVCRTCEYSCSTHPQMKYHYQKMHPEVRCDGFNIQKVFNIEFDEVAIFDLFQKCFGAHSSIIGNIGKPRRYKKCKNSLKNTPEVDNENVDKDSPGPSHDLF	not soluble
MTDEIISYQKAKLAKNLAISTASKWLFVHSSTGGSATNLSIAQYATLINGIQSAIKCQVILTAGKGERERAVELAEKLTDQNVVIYDKNDGLADFTRSLACADLFIAGSTGPLHIAGGLNIPTVGFYPSRLSATPRRWRPINQVDKHLAFCPPSGKQCEMDLTLISIEQALTSVIPFIKKMWQLSLEHHHHHH	soluble
MTDKYRLRERVWDDLEDSGVARFPFPPHGRIPNYAGADEAAARLTETDVWQRAETVKANPDAPQLPVRRAALRAGKTLYAAVPRLRDEECFLRLDPTTIDDIDAATTVSGIEEYGDPVGPGDVDPIDLIVSGSVAVTDRGERVGKGEGYSDLEFALLRAFGRVDDDTATVTTVHERQVVDDAVPTAAHDVPMEYVVTPDRTITTTHEDDTPSGIDWDALDEQRLAEIPVLDRRSP	soluble
MTDVTSPVVDEKPCFGANPQIFKLGLGKQHILAHDIGQGSQCRNLPTCRCEGLDLHFWRKMCKNCGCRMDEHDVVLPNEFDHAQIVIGRLFGAREHFEKVLTKPGMYKPNEQNETKENNMMSTRSQPTAVYNYKMASSDSESERGGSNNKENVQYAWAPLPDKNLVSRYMKALPEDERPLVGSKGEQNRKSRLQFQLPLYDCNVEDARFVEEKDVKTLQNFVENVRNNVIGVGRVVEIGKDSDNYGDNENTNEFEKSMTAALKGLKIGETDCKDCNEMMETGDIGVECHHHSTTDTYHPNCFRCETCRQLLVDNIYFFYKNKYYCGRHYADQLYPRCAGCDELIFANEYTFAEEKSWHFDHFACYKCDFKLGGSRYMTRDENPFCLDCYLKHFAKTCDTCQSKIGPDEKRLNYNETHWHAEERCFQCVQCKMNLIGKKFMLKNHKLLCSSQCKANYNSANPDDQL	not soluble
MTEADDPKKKIRARIERDVYSVLLSFQEGATPNQVERRMDDTLGYTYVGKYVQAGVRDMAQLLREHKDVRQNLSGVFSVVANEDNQDLINLISKQKKKKKGGKGAKPIRAATSMGFHNKSGFGYAAHLRSPKPSFMYPASSARANPAKPQATGYRNTVRHPPVRPSTATGHSSFANRSAYSHHTTRSTTVGPVKIAPSATAQRPLLRQPVTVVQRLSSTVAVPVLQPGIDSKCMPSIVDFSNNVKRMMLLEYPADVHLSELTEIYDKHFDVSIDPLQLFSKSWMMFVKTSFKEWLQLGTDGRVEVKEPWFTNFGAALKKSMPPAPEKKKPTTLHEPTSSVASSSLPISQGFRYQIPVVRPIVSVAESMKGLTVSARSVMGTPKDLPGVSNPIKNTARGSNKPRNDLASSKASKDLVVPVMKTTCIKSLEDTSTSSSNPSTLQLSTASTSATDQKLPKMSFGRQIEKGSSIPGRHISLALTEIKNQKVIAASIVGKSAKTSTKVPSTTRSVVLPPMSKGPGLARSRNFSPQQSTTSSIDNECLEAINAALPSDKDSW	soluble
MTEDQVEILEYNFNKVNKHPDPTTLCLIAAEAGLTEEQTQKWFKQRLAEWRRSEGLPSECRSVTD	soluble
MTEFSASLAPQVEAFLRYLSIERQLSPLTVTSYRRQLSALMEIGEQMGLAHWQTLDAAQVRSLVSRSKRAGLHASSLALRLSALRSFLNWLVSQGVLPANPAKGVSTPRSGRHLPKNIDVDEVNKLLSIDLNDPLAVRDRAMLEVMYGAGLRLSELVGMNCKHVDLASGDVWVMGKGSKERKVPLGKTAVTWLQHWLALRELFEPQDDAIFLANTGKRISARNVQKRFAEWGVKQGVSSHIHPHKLRHSFATHMLESSGDLRAVQELLGHANLTTTQIYTHLDFQHLATVYDAAHPRAKRGKS	not soluble
MTEILQTLKEYIPISLEEMSGIKLMNRTDTKYVTSYQILKEILLAAGHDYRVQEVNGEYNIAYHTIYLDTADRDMYLTHQNGRVVREKIRIRTYVDSDLTFLEVKNKNNKGRTDKKRIRIGSIDTIKEDGGEAFLRQHAWYEQSQLLPLLENSFRRITLVNKHKTERLTIDTGVTFCCLQSGKISSLDNIVIIELKRDGHNSSPIKEILRKLHIQSSGFSKYCIGSALTVSHLKCNRLKPKLRMLNKMGVYLEHHHHHH	soluble
MTEITHRTKTRPVKVGNLTIGGNNEVVVQSMTTTKTHDVEATVAEIKRLEEAGCQVVRVACPDMRAAEAIPAIKKQISIPLVVDIHFDYKLALKAIEGGADKIRINPGNIGKRHKVEAVVKAAKEKGIPIRIGVNAGSLEKRILDKYGYPTADGMVESALHHIKILEDLDFHDIIVSMKASDVNLAIEAYEKAAKAFDYPLHLGITESGTLFAGTVKSAAGLGAILNMGIGNTVRVSLSADPVEEVKVARELLKSFGLASNAATLISCPTCGRIEIDLISIANEMEEYISKIRAPIKVAVLGCAVNGPGEAREADIGIAGARGEGLLFRKGEIVRKVPEETMVEELKKEIDKIAEEYFAKQKELEKA	not soluble
MTEKHKTMGKFKVIVLAGTAGTGKSTIAGELIHEFKDIYPDLKFIEGDDLHPPANVEKMTRGIPLNDDDRWDWLKKVAVESTKAAASTKEHLSIVACSSLKKKYRDLIRHTCPESEFHFIFLYASKIEVLKRLKTRKGHFMKADMMESQFRDLELPDINDETDCDIVPLDFKTFYQIEKDVIQVVKSKVLNIE	not soluble

From the DeepSol protein solubility set
